Reference: patent US20260242478A1 (published 2026)
Where no end group is shown, it is not given here.

Assays:
[1] = molecular target: T1, Anti-PSMA Fab (SEQ ID NOs: 19, 20); assay: phage binding ELISA; Fab-coated wells pre-incubated with PSMA antigen as competitor, anti-M13-HRP detection;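 note: clonal phage supernatants screened, with reference wells given blocking buffer only (no PSMA antigen) before phage were added for a brief incubation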
T1 construct: Biotinylated and captured on neutravidin coated plates in the phage ELISA; also called 006 PSMA Fab
Method: (§1) Clonal phage were harvested as crude supernatants and screened via standard ELISAs. […] Prior to the addition of clonal phage. wells were incubated with blocking buffer and PSMA antigen or blocking buffer alone. Without washing or aspirating, clonal phage supernatants were then added to the wells and incubated for a short time. Wells were then washed followed by detection of bound phage using a horse radish conjugated anti-M13 antibody.

[2] = molecular target: T1, Anti-PSMA Fab (SEQ ID NOs: 19, 20); assay: phage binding ELISA; biotinylated PSMA Fab on neutravidin plate, clonal phage detected with anti-M13-HRP
Method: as §1

[3] = molecular target: T2, Anti-PSMA Fab (SEQ ID NOs: 19, 20); assay: phage ELISA; captured PSMA Fab pre-incubated with PSMA antigen as competitor, anti-M13 HRP detection
T2 construct: Biotinylated and captured on neutravidin coated plates in the phage ELISA; also called 006 PSMA Fab
Method: as §1

[4] = molecular target: T2, Anti-PSMA Fab (SEQ ID NOs: 19, 20); assay: phage ELISA; biotinylated PSMA Fab captured on neutravidin plate, clonal phage supernatant, anti-M13 HRP detection
Method: as §1

[5] = molecular target: T3, Anti-PSMA Fab (SEQ ID NOs: 19, 20); assay: phage ELISA; biotinylated PSMA Fab on neutravidin plate, clonal phage supernatant, anti-M13 HRP detection;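 note: wells preincubated with PSMA antigen in blocking buffer or with blocking buffer only before clonal phage were added for a short incubation, then bound phage detected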
T3 construct: Biotinylated PSMA Fab captured on neutravidin coated plates in the phage ELISA; also called 006 PSMA Fab
Method: as §1

[6] = molecular target: T3, Anti-PSMA Fab (SEQ ID NOs: 19, 20); assay: phage ELISA; PSMA Fab on plate pre-incubated with PSMA antigen as competitor, anti-M13 HRP detection;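 note: crude clonal phage supernatants added to Fab-coated wells still holding PSMA antigen in blocking buffer, with bound phage as read-out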
Method: as §1

Binder	Anti-PSMA Fab signal in the presence of PSMA [1]	Anti-PSMA Fab (SEQ ID NOs: 19, 20) signal [2]	Phage binding ELISA, Anti-PSMA Fab signal in the presence of PSMA [3]	Phage binding ELISA, Anti-PSMA Fab (SEQ ID NOs: 19, 20) signal [4]	also measured
WSKSCTPAWMCEGF (tested as crude clonal phage supernatant) [Phage-2185]	0.0843	1.63			
GSHWCIPPWMCQMS (Clonal phage of the peptide-180 library, tested as crude supernatant; not shown: pIII of the bacteriophage, to which the peptide is fused) [Phage-2163]			0.0821	1.66	
DVIRCTPDWMCTGF (Clonal phage of the Peptide-180 library, tested as crude supernatant; not shown: fused to the pIII filament of the bacteriophage) [Phage-2157]					Phage binding ELISA, Anti-PSMA Fab (SEQ ID NOs: 19, 20) signal [5]: 1.66; Phage binding ELISA, Anti-PSMA Fab signal in the presence of PSMA [6]: 0.064
YVNWCTPEWMCVGF (Clonal phage of the peptide-180 library, tested as crude supernatant; not shown: pIII of the bacteriophage, to which the peptide is fused) [Phage-2174]			0.0598	1.64	
EHKWCIPDWMCMVA (Clonal phage of the Peptide-180 library, tested as crude supernatant; not shown: fused to the pIII filament of the bacteriophage) [Phage-2153]					Phage binding ELISA, Anti-PSMA Fab (SEQ ID NOs: 19, 20) signal [5]: 1.67; Phage binding ELISA, Anti-PSMA Fab signal in the presence of PSMA [6]: 0.0728
ITKWCTPAWMCAHL (cysteine pairing not given here; also: displayed on bacteriophage as fusion to pIII, tested as crude clonal phage supernatant) [Phage-2178]	0.0904	1.64			
GEKWCIPEWMCVHL (Clonal phage of the peptide-180 library, tested as crude supernatant; not shown: pIII of the bacteriophage, to which the peptide is fused) [Phage-2168]			0.065	1.65	
LDKWCTPEWMCWGI (Clonal phage of the Peptide-180 library, tested as crude supernatant; not shown: fused to the pIII filament of the bacteriophage) [Phage-2154]					Phage binding ELISA, Anti-PSMA Fab (SEQ ID NOs: 19, 20) signal [5]: 1.67; Phage binding ELISA, Anti-PSMA Fab signal in the presence of PSMA [6]: 0.0536
GDRLCVPEWMCEML (Clonal phage of the peptide-180 library, tested as crude supernatant; not shown: pIII of the bacteriophage, to which the peptide is fused) [Phage-2171]			0.0685	1.65	
VIPWCIPEWMCTAS (Clonal phage of the peptide-180 library, tested as crude supernatant; not shown: pIII of the bacteriophage, to which the peptide is fused) [Phage-2175]			0.0692	1.64	
EGRWCIPSWMCVGV (Clonal phage of the Peptide-180 library, tested as crude supernatant; not shown: fused to the pIII filament of the bacteriophage) [Phage-2155]					Phage binding ELISA, Anti-PSMA Fab (SEQ ID NOs: 19, 20) signal [5]: 1.67; Phage binding ELISA, Anti-PSMA Fab signal in the presence of PSMA [6]: 0.0956
VHMRCIPEWMCQVF (tested as crude clonal phage supernatant) [Phage-2183]	0.071	1.63			
ESMLCRPVWMCVGF (Clonal phage of the peptide-180 library, tested as crude supernatant; not shown: pIII of the bacteriophage, to which the peptide is fused) [Phage-2169]			0.0711	1.65	
LIKWCTPPWMCEQL (tested as crude clonal phage supernatant) [Phage-2180]	0.0655	1.64			
VEHWCTPRWMCRGF (Clonal phage of the peptide-180 library, tested as crude supernatant; not shown: pIII of the bacteriophage, to which the peptide is fused) [Phage-2176]			0.0605	1.64	
SLHLCIPQWMCGIS (cysteine pairing not given here; also: displayed on bacteriophage as fusion to pIII, tested as crude clonal phage supernatant) [Phage-2177]	0.0806	1.64			
HEKLCIPWWMCEDH (tested as crude clonal phage supernatant) [Phage-2182]	0.0868	1.64			
MAMMCIPPWMCDTM (Clonal phage of the peptide-180 library, tested as crude supernatant; not shown: pIII of the bacteriophage, to which the peptide is fused) [Phage-2172]			0.0889	1.65	
EFKWCIPAWMCTAA (tested as crude clonal phage supernatant) [Phage-2186]	0.0998	1.63			

Binder	Anti-PSMA Fab signal in the presence of PSMA [1]	Anti-PSMA Fab (SEQ ID NOs: 19, 20) signal [2]	Phage binding ELISA, Anti-PSMA Fab signal in the presence of PSMA [3]	Phage binding ELISA, Anti-PSMA Fab (SEQ ID NOs: 19, 20) signal [4]	also measured
WYKWCTPAWMCEFT (tested as crude clonal phage supernatant) [Phage-2189]	0.145	1.63			
AMHWCIPKWMCETS (Clonal phage of the Peptide-180 library, tested as crude supernatant; not shown: fused to the pIII filament of the bacteriophage) [Phage-2160]					Phage binding ELISA, Anti-PSMA Fab (SEQ ID NOs: 19, 20) signal [5]: 1.66; Phage binding ELISA, Anti-PSMA Fab signal in the presence of PSMA [6]: 0.141
DIRWCIPDWMCTET (Clonal phage of the peptide-180 library, tested as crude supernatant; not shown: pIII of the bacteriophage, to which the peptide is fused) [Phage-2164]			0.0725	1.65	
VSKWCTPEWMCTGF (Clonal phage of the Peptide-180 library, tested as crude supernatant; not shown: fused to the pIII filament of the bacteriophage) [Phage-2156]					Phage binding ELISA, Anti-PSMA Fab (SEQ ID NOs: 19, 20) signal [5]: 1.67; Phage binding ELISA, Anti-PSMA Fab signal in the presence of PSMA [6]: 0.0826
ENKWCIPTWMCAHE (cysteine pairing not given here; also: displayed on phage, fused to pIII, Clonal phage of the peptide-180 library, tested as crude supernatant; not shown: pIII of the bacteriophage, to which the peptide is fused) [Phage-2173]			0.0646	1.64	
EMKWCIPDWMCAAG (Clonal phage of the Peptide-180 library, tested as crude supernatant; not shown: fused to the pIII filament of the bacteriophage) [Phage-2161]					Phage binding ELISA, Anti-PSMA Fab (SEQ ID NOs: 19, 20) signal [5]: 1.66; Phage binding ELISA, Anti-PSMA Fab signal in the presence of PSMA [6]: 0.0716
EHHWCIPKWMCNEV (tested as crude clonal phage supernatant) [Phage-2190]	0.0711	1.63			
VQKWCVPEWMCGSW (Clonal phage of the peptide-180 library, tested as crude supernatant; not shown: pIII of the bacteriophage, to which the peptide is fused) [Phage-2167]			0.0837	1.65	
ETKWCFPPWMCAGS (Clonal phage of the Peptide-180 library, tested as crude supernatant; not shown: fused to the pIII filament of the bacteriophage) [Phage-2159]					Phage binding ELISA, Anti-PSMA Fab (SEQ ID NOs: 19, 20) signal [5]: 1.66; Phage binding ELISA, Anti-PSMA Fab signal in the presence of PSMA [6]: 0.337
YEKWCTPAWMCEYQ (Clonal phage of the peptide-180 library, tested as crude supernatant; not shown: pIII of the bacteriophage, to which the peptide is fused) [Phage-2166]			0.0648	1.65	
FERWCIPAWMCQSD (Clonal phage of the Peptide-180 library, tested as crude supernatant; not shown: fused to the pIII filament of the bacteriophage) [Phage-2158]					Phage binding ELISA, Anti-PSMA Fab (SEQ ID NOs: 19, 20) signal [5]: 1.66; Phage binding ELISA, Anti-PSMA Fab signal in the presence of PSMA [6]: 0.066
TEKWCIPEWMCAHQ (cysteine pairing not given here; also: displayed on bacteriophage as fusion to pIII, tested as crude clonal phage supernatant) [Phage-2184]	0.0839	1.63			
LDKLCIPSWMCWSH (tested as crude clonal phage supernatant) [Phage-2181]	0.0713	1.64			
VVPWCIPVWMCNSQ (Clonal phage of the peptide-180 library, tested as crude supernatant; not shown: pIII of the bacteriophage, to which the peptide is fused) [Phage-2165]			0.0957	1.65	
LSHWCSPQWMCSGF (tested as crude clonal phage supernatant) [Phage-2188]	0.0932	1.63			
EVKLCRPPWMCEIF (Clonal phage of the peptide-180 library, tested as crude supernatant; not shown: pIII of the bacteriophage, to which the peptide is fused) [Phage-2162]			0.0633	1.66	
DENWCKPLWMCKGF (Clonal phage of the peptide-180 library, tested as crude supernatant; not shown: pIII of the bacteriophage, to which the peptide is fused) [Phage-2170]			0.105	1.65	
EPKLCRPAWMCVGM (tested as crude clonal phage supernatant) [Phage-2179]	0.0704	1.64			
EIKWCTPAWMCEGF (tested as crude clonal phage supernatant) [Phage-2187]	0.0762	1.63			
